Experiments:
human ROR1 (hROR1) = molecular target: T1, human ROR1 (hROR1) (human, UniProt Q01973 30-937); test: flow cytometry, HCT116-hROR1 cells
T1 construct: On HCT116-hROR1 transfectants, Mino cells or Ntera-2 cells, as the assay of each row says; also called receptor tyrosine kinase like orphan receptor 1

[1] = molecular target: T2, human ROR1 Frizzled domain (hROR1-Fz) (human, UniProt Q01973 165-305); test: SPR Biacore, IgG on anti-Fc, ROR1-Fz analyte
T2 construct: Acro Biosystems, made in HEK293
Outline: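 Test antibodies captured on an anti-Fc surface (CM5 chip), then analyte bound for 180 s with 600 s dissociation at 25° C in HBS-EP+ buffer at 50 μL/min. Human ROR1 ECD, Frizzled or Kringle domain used as analyte; regeneration with 10 mM glycine pH 2.0.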

[2] = molecular target: T3, human ROR1 (hROR1) expressed on cells (human, UniProt Q01973 30-937); test: flow cytometry, HCT116-hROR1 cells
T3 construct: Mino cells are the target positive cells of the killing assay; also called receptor tyrosine kinase like orphan receptor 1; HCT 116-hROR1

B1: SRP2196-C02 (antibody, V domains shown)
VH: EVQLVESGGGLVQPGGSLRLSCAASGFNITGYHIHWVRQAPGKGLEWVGFISPNSGWTYSADSVKGRFTISADTSKNTAYLQMNSLRAEDTAVYYCARDSRRYVRPFDYWGQGTLVTVSS
VL: QAVVTQESALTTSPGETVTLTCRSSTGAVTTSNYANWVQEKPDHLFTGLIGGTNKRAPGVPARFSGSLIGDKAALTITGAQTEDEAIYFCALWYSNLWVFGGGTKLTVL
notes: His/FLAG-tagged IgG1
Question: Which “Bmax (MFI)” value (human ROR1 (hROR1)) does the source give for B1 here?
Answer: 15300 MFI

Question: And the Kd (human ROR1 (hROR1))?
Answer: 0.6 nM

Question: What about the Kd [1] of the same binder?
Answer: 3.02 nM

Question: And the koff [1]?
Answer: 0.00036 s⁻¹

Question: And the kon [1]?
Answer: 119000 M⁻¹ s⁻¹

B2: SRP1944-A07 w SP34 LC3 (antibody, V domains shown)
VH: EVQLVESGGGLVQPGGSLRLSCAASGFNITGYYIHWVRQAPGKGLEWVGYISPNSGSTYYADSVKGRFTISADTSKNTAYLQMNSLRAEDTAVYYCARDSRRYVRPFDYWGQGTLVTVSS
VL: QTVVTQEPSLTVSPGGTVTLTCGSSTGAVTSGYYPNWFQQKPGQAPRGLIGGTKFLAPGTPARFSGSLLGGKAALTLSGVQPEDEAEYYCALWYSNRWVFGGGTQLTVTG
notes: Parent of SRP2196; IgG
Question: How did the “Bmax (MFI)” value (human ROR1 (hROR1)) turn out when B2 was run?
Answer: 13200 MFI

Question: What about the Kd (human ROR1 (hROR1)) of the same binder?
Answer: 0.1 nM

Question: What about the Kd [1] of the same binder?
Answer: 14.3 nM

Question: What about the koff [1] of the same binder?
Answer: 0.0085 s⁻¹

Question: What about the kon [1] of the same binder?
Answer: 597000 M⁻¹ s⁻¹

B3: SRP2196-A09 (antibody, V domains shown)
VH: EVQLVESGGGLVQPGGSLRLSCAASGFNITGYYIHWVRQAPGKGLEWVGQISPNSGATHYADSVKGRFTISADTSKNTAYLQMNSLRAEDTAVYYCARDSRRYIRSWDYWGQGTLVTVSS
VL: QAVVTQESALTTSPGETVTLTCRSSTGAVTTSNYANWVQEKPDHLFTGLIGGTNKRAPGVPARFSGSLIGDKAALTITGAQTEDEAIYFCALWYSNLWVFGGGTKLTVL
notes: His/FLAG-tagged IgG1
Question: What does the source list for B3?
Answer: Bmax (MFI) (human ROR1 (hROR1)): 14600 MFI; Kd (human ROR1 (hROR1)): 0.2 nM; Kd [1]: 3.79 nM; koff [1]: 0.000568 s⁻¹; kon [1]: 150000 M⁻¹ s⁻¹

B4: SRP2196-C04 (antibody, V domains shown)
VH: EVQLVESGGGLVQPGGSLRLSCAASGFNITGYYIHWVRQAPGKGLEWVGFIAPLSGSTHNADSVKGRFTISADTSKNTAYLQMNSLRAEDTAVYYCARESRRYVNPWDYWGQGTLVTVSS
VL: QAVVTQESALTTSPGETVTLTCRSSTGAVTTSNYANWVQEKPDHLFTGLIGGTNKRAPGVPARFSGSLIGDKAALTITGAQTEDEAIYFCALWYSNLWVFGGGTKLTVL
notes: His/FLAG-tagged IgG1; also called Antibody 162
Question: B4 was tested. Which “Bmax (MFI)” value (human ROR1 (hROR1)) did it give?
Answer: 13800 MFI

Question: And the Kd (human ROR1 (hROR1))?
Answer: 0.5 nM

Question: And the Kd [1]?
Answer: 5.35 nM

Question: What about the koff [1] of the same binder?
Answer: 0.000704 s⁻¹

Question: And the kon [1]?
Answer: 131000 M⁻¹ s⁻¹

B5: SRP2196-C03 (antibody, V domains shown)
VH: EVQLVESGGGLVQPGGSLRLSCAASGFNITGYYIHWVRQAPGKGLEWVGQISPNSGSTYSADSVKGRFTISADTSKNTAYLQMSSLRAEDTAVYYCARDSRRYVLSWDYWGQGTLVTVSS
VL: QAVVTQESALTTSPGETVTLTCRSSTGAVTTSNYANWVQEKPDHLFTGLIGGTNKRAPGVPARFSGSLIGDKAALTITGAQTEDEAIYFCALWYSNLWVFGGGTKLTVL
notes: His/FLAG-tagged IgG1
Question: Which “Bmax (MFI)” value (human ROR1 (hROR1)) does the source give for B5 here?
Answer: 15000 MFI

Question: What about the Kd (human ROR1 (hROR1)) of the same binder?
Answer: 0.4 nM

Question: And the Kd [1]?
Answer: 3.23 nM

Question: What about the koff [1] of the same binder?
Answer: 0.000461 s⁻¹

Question: What about the kon [1] of the same binder?
Answer: 143000 M⁻¹ s⁻¹

B6: SRP2188-A06 (antibody, IgG1, V domains shown)
VH: EVQLVESGGGLVQPGGSLRLSCAASGFNIKSYDIHWVRQAPGKGLEWVGWINPDDGDTYHADSVKGRFTISADTSKNTAYLQMNSLRAEDTAVYYCARDYGVFDYWGQGTLVTVSS
VL: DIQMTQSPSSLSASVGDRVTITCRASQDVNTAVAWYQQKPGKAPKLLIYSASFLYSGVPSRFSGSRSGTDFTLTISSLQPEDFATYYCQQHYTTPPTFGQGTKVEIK
notes: IgG1 with trastuzumab LC; HIS- and FLAG-tagged; cell-free expressed
Question: For B6, which “Bmax (MFI)” value [2] is on record?
Answer: 8950 MFI

Question: What about the Kd [2] of the same binder?
Answer: 0.02 nM

B7: SRP2188-C06 (antibody, IgG1, V domains shown)
VH: EVQLVESGGGLVQPGGSLRLSCAASGFNINSYDIHWVRQAPGKGLEWVGWINPDDGDTYLADSVKGRFTISADTSKNTAYLQMNSLRAEDTAVYYCARDYGVFDYWGQGTLVTVSS
VL: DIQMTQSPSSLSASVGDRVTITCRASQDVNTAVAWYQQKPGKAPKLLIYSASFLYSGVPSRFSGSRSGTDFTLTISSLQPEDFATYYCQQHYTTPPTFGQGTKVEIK
notes: as for B6
Question: With B7 as the binder, how does the “Bmax (MFI)” value [2] read?
Answer: 9580 MFI

Question: What about the Kd [2] of the same binder?
Answer: 0.03 nM

B8: SRP2188-E11 (antibody, IgG1, V domains shown)
VH: EVQLVESGGGLVQPGGSLRLSCAASGFNISHYDIHWVRQAPGKGLEWVSGIDPGDGATDHADSVKGRFTISADTSKNTAYLQMNSLRAEDTAVYYCARDYGVFDYWGQGTLVTVSS
VL: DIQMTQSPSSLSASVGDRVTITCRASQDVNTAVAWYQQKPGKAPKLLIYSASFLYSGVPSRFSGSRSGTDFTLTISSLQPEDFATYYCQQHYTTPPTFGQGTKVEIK
notes: as for B6
Question: With B8 as the binder, how does the “Bmax (MFI)” value [2] read?
Answer: 9250 MFI

Question: And the Kd [2]?
Answer: 0.03 nM

B9: SRP2188-C01 (antibody, IgG1, V domains shown)
VH: EVQLVESGGGLVQPGGSLRLSCAASGFNIISYDIHWVRQAPGKGLEWVSLIDPHDGSTDSADSVKGRFTISADTSKNTAYLQMNSLRAEDTAVYYCARDYGVFDYWGQGTLVTVSS
VL: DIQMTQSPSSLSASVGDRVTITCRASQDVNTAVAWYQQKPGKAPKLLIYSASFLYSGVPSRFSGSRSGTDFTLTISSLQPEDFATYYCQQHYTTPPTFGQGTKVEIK
notes: as for B6
Question: With B9 as the binder, how does the “Bmax (MFI)” value [2] read?
Answer: 10100 MFI

Question: And the Kd [2]?
Answer: 0.38 nM

B10: SRP2188-E09 (antibody, IgG1, V domains shown)
VH: EVQLVESGGGLVQPGGSLRLSCAASGFNISDFDIHWVRQAPGKGLEWVAEIDPQDGWTVHADSVKGRFTISADTSKNTAYLQMNSLRAEDTAVYYCARDYGVFDYWGQGTLVTVSS
VL: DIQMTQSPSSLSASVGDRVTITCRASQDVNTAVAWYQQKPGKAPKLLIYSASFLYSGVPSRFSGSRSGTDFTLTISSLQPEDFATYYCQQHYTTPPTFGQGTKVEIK
notes: as for B6
Question: Which “Bmax (MFI)” value [2] does the source give for B10 here?
Answer: 9780 MFI

Question: And the Kd [2]?
Answer: 0.02 nM

B11: SRP2188-B11 (antibody, IgG1, V domains shown)
VH: EVQLVESGGGLVQPGGSLRLSCAASGFNINRYDIHWVRQAPGKGLEWVGWINPDDGDTFLADSVKGRFTISADTSKSTAYLQMNSLRAEDTAVYYCARDYGVFDYWGQGTLVTVSS
VL: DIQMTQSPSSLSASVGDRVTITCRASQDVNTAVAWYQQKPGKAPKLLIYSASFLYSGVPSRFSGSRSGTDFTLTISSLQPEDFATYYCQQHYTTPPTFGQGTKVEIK
notes: as for B6
Question: Which “Bmax (MFI)” value [2] does the source give for B11 here?
Answer: 8730 MFI

Question: And the Kd [2]?
Answer: 0.04 nM

B12: SRP2188-F07 (antibody, IgG1, V domains shown)
VH: EVQLVESGGGLVQPGGSLRLSCAASGFNISDYDIHWVRQAPGKGLEWVGGIDPNDGSTDHADSVKGRFTISADTSKNMAYLQMNSLRAEDTAVYYCARDYGVFDYWGQGTLVTVSS
VL: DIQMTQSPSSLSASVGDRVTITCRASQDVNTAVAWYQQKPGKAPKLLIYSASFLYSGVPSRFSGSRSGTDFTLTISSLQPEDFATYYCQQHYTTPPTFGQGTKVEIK
notes: as for B6
Question: For B12, which “Bmax (MFI)” value [2] is on record?
Answer: 9870 MFI

Question: And the Kd [2]?
Answer: 0.03 nM

B13: SRP2188-C08 (antibody, IgG1, V domains shown)
VH: EVQLVESGGGLVQPGGSLRLSCAASGFNIKSHDIHWVRQAPGKGLEWVGWINPDDGDTYHADSVKGRFTISADTSKNTAYLQMNSLRAEDTAVYYCARDYGVFDYWGQGTLVTVSS
VL: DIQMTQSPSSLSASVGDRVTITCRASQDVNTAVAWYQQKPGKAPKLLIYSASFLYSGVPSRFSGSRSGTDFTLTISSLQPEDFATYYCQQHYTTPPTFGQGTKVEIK
notes: as for B6
Question: B13 was tested. Which “Bmax (MFI)” value [2] did it give?
Answer: 8570 MFI

Question: What about the Kd [2] of the same binder?
Answer: 0.03 nM

B14: SRP2188-C10 (antibody, IgG1, V domains shown)
VH: EVQLVESGGGLVQPGGSLRLSCAASGFNINSYDIHWVRQAPGKGLEWVGWINPDDGDTYHADSVKGRFTISADTSKNTAYLQMNSLRAEDTAVYYCARDYGVFDYWGQGTLVTVSS
VL: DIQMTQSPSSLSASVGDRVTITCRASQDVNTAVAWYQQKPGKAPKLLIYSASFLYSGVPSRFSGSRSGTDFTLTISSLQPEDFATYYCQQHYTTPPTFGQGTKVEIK
notes: as for B6
Question: For B14, which “Bmax (MFI)” value [2] is on record?
Answer: 9310 MFI

Question: What about the Kd [2] of the same binder?
Answer: 0.05 nM

B15: SRP2188-B02 (antibody, IgG1, V domains shown)
VH: EVQLVESGGGLVQPGGSLRLSCAASGFNISSYDIHWVRQAPGKGLEWVGWINPDDGDTYLADSVKGRFTISADTSKSTAYLQMNSLRAEDTAVYYCARDYGVFDYWGQGTLVTVSS
VL: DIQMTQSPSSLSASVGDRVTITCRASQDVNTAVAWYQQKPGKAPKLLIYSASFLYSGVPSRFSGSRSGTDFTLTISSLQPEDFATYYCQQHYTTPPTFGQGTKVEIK
notes: as for B6
Question: B15 was tested. Which “Bmax (MFI)” value [2] did it give?
Answer: 9760 MFI

Question: And the Kd [2]?
Answer: 0.03 nM

B16: SRP2188-E08 (antibody, IgG1, V domains shown)
VH: EVQLVESGGGLVQPGGSLRLSCAASGFNIIDFDIHWVRQAPGKGLEWVGGIDPQDGSTDLADSVKGRLTISADTSKNTAYLQMNSLRAEDTAVYYCARDYGVFDYWGQGTLVTVSS
VL: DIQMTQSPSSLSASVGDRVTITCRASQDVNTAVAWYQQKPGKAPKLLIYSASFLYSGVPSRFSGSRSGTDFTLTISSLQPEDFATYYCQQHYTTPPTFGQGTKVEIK
notes: as for B6
Question: With B16 as the binder, how does the “Bmax (MFI)” value [2] read?
Answer: 9330 MFI

Question: And the Kd [2]?
Answer: 0.03 nM

B17: SRP2188-F02 (antibody, IgG1, V domains shown)
VH: EVQLVESGGGLVQPGGSLRLSCAASGFNISDYDIHWVRQAPGKGLEWVAWIDPSDGSTEHADSVKGRFTISADTSKNTAYLQMSSLRAEDTAVYYCARDYGVFDYWGQGTLVTVSS
VL: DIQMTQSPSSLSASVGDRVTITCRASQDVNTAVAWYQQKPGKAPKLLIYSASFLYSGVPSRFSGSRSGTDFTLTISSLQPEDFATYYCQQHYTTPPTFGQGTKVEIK
notes: as for B6
Question: What does the source list for B17?
Answer: Bmax (MFI) [2]: 9850 MFI; Kd [2]: 0.03 nM

B18: SRP2188-E07 (antibody, IgG1, V domains shown)
VH: EVQLVESGGGLVQPGGSLRLSCAASGFNIGDYGIHWVRQAPGKGLEWVGGIDPEDGFTVHADSVKGRFTISADTSKNTAYLQMNSLRAEDTAVYYCARDYGVYDYWGQGTLVTVSS
VL: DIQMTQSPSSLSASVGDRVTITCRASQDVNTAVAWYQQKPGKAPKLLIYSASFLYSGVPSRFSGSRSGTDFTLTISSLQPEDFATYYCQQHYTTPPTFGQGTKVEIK
notes: as for B6
Question: How did the “Bmax (MFI)” value [2] turn out when B18 was run?
Answer: 7600 MFI

Question: And the Kd [2]?
Answer: 0.02 nM
